Source: paper PMC8355051 (Nature biotechnology, 2021)

Key:
[1] = biological target: Spike-RBD-15aa-LgBiT-12xHisTag (SARS-CoV-2, UniProt P0DTC2); test: split reporter
[2] = biological target: Spike-RBD-25aa-SmBiT-12xHisTag (SARS-CoV-2, UniProt P0DTC2); test: split reporter
[3] = biological target: Biotinylated Spike RBD protein (SARS-CoV-2, UniProt P0DTC2, biotin); test: BLI

Measured: binding result

B1: C105 IgG (antibody, V domains shown)
VH: QVQLVESGGGLIQPGGSLRLSCAASGFTVSSNYMSWVRQAPGKGLEWVSVIYSGGSTYYADSVKGRFTISRDNSKNTLYLQMNSLRAEDTAVYYCARGEGWELPYDYWGQGTLVTVSS
VL: QSALTQPPSASGSPGQSVTISCTGTSSDVGGYKYVSWYQQHPGKAPKLMIYEVSKRPSGVPDRFSGSKSGNTASLTVSGLQAEDEADYYCSSYEGSNNFVVFGGGTKLTVL
binds: all assays above
